# Source: the Immune Epitope Database (IEDB)
# Key:
# HLA-B*07:02 = assay: IEDB peptide-MHC binding, purified MHC/direct/fluorescence; filed as Kd, often an IC50 or EC50 that approximates it; ≥ and ≤ were set here for values at or beyond the usual limits of such assays
# HLA-A*01:01 [1] = assay: as above
# HLA-A*02:01 [2] = assay: IEDB peptide-MHC binding, purified MHC/competitive/fluorescence; ≥ and ≤ were set here for values at or beyond the usual limits of such assays
# HLA-A*24:02 = assay: IEDB peptide-MHC binding, purified MHC/competitive/radioactivity; filed as Kd, often an IC50 or EC50 that approximates it; ≥ and ≤ were set here for values at or beyond the usual limits of such assays
# HLA-A*26:01 = assay: as above
# HLA-A*01:01 [3] = assay: as above
# HLA-A*30:02 = assay: as above
# HLA-B*51:01 = assay: as above
# HLA-B*27:05 = assay: IEDB peptide-MHC binding, purified MHC/direct/fluorescence; filed as Kd, often an IC50 or EC50 that approximates it; ≥ and ≤ were set here for values at or beyond the usual limits of such assays
# HLA-A*11:01 = assay: as above; conditions: source organism: SARS-CoV1
# HLA-B*58:01 = assay: as above
# HLA-B*15:01 [4] = assay: IEDB peptide-MHC binding, purified MHC/competitive/radioactivity; filed as Kd, often an IC50 or EC50 that approximates it; ≥ and ≤ were set here for values at or beyond the usual limits of such assays
# HLA-B*46:01 = assay: IEDB peptide-MHC binding, purified MHC/direct/fluorescence; filed as Kd, often an IC50 or EC50 that approximates it; ≥ and ≤ were set here for values at or beyond the usual limits of such assays; conditions: source organism: Yellow fever virus
# HLA-B*53:01 = assay: IEDB peptide-MHC binding, purified MHC/competitive/radioactivity; filed as Kd, often an IC50 or EC50 that approximates it; ≥ and ≤ were set here for values at or beyond the usual limits of such assays
# HLA-A*69:01 = assay: IEDB peptide-MHC binding, purified MHC/direct/fluorescence; filed as Kd, often an IC50 or EC50 that approximates it; ≥ and ≤ were set here for values at or beyond the usual limits of such assays
# HLA-A*02:01 [5] = assay: as above
# HLA-B*15:01 [6] = assay: as above
# HLA-A*02:03 = assay: IEDB peptide-MHC binding, purified MHC/competitive/radioactivity; filed as Kd, often an IC50 or EC50 that approximates it; ≥ and ≤ were set here for values at or beyond the usual limits of such assays
# HLA-A*02:06 = assay: as above
# HLA-A*02:02 = assay: as above
# [7] = source organism: Sudan ebolavirus
# [8] = source organism: Dengue virus 1 Brazil/97-11/1997
# [9] = source organism: Mammarenavirus brazilense
# [10] = source organism: Dengue virus 2 Jamaica/1409/1983
# [11] = source organism: Dengue virus 3 Martinique/1243/1999
# [12] = source organism: Vaccinia virus WR
# [13] = source organism: Zaire ebolavirus
# [14] = source organism: Dengue virus 4 Dominica/814669/1981
# [15] = source organism: Mycobacterium tuberculosis
# [16] = source organism: Human betaherpesvirus 6B
# [17] = source organism: Bacillus anthracis
# [18] = source organism: Haemophilus influenzae
# [19] = source organism: Dengue virus 4 Philippines/H241/1956
# [20] = source organism: Entamoeba histolytica
# [21] = source organism: Salmonella enterica subsp. enterica serovar Typhimurium
# [22] = source organism: SARS coronavirus Tor2
sequence,measurement,setting,value
APRTLVLLL,Kd,HLA-B*07:02; source organism: Homo sapiens,145 nM
ASLLRRWPK,Kd,HLA-A*01:01 [1]; source organism: Vibrio cholerae,≥ 20000 nM
ASTVIYRGV,IC50,HLA-A*02:01 [2]; [7],7440 nM
DFPGKTVWF,Kd,HLA-A*24:02; [8],8800 nM
DPKRYFVPIF,Kd,HLA-A*26:01; [9],≥ 69700 nM
same,Kd,HLA-A*01:01 [3]; [9],≥ 70400 nM
EKSAAIDGEY,Kd,HLA-A*30:02; [8],49.3 nM
same,Kd,HLA-A*26:01; [8],2040 nM
same,Kd,HLA-A*01:01 [3]; [8],2420 nM
ELCEDTITY,Kd,HLA-A*26:01; [10],754 nM
EPPFGESNI,Kd,HLA-B*51:01; [11],11200 nM
ERSDKSYEH,Kd,HLA-B*27:05; source organism: SARS-CoV1,8450 nM
same,Kd,HLA-A*11:01,16800 nM
same,Kd,HLA-B*58:01; source organism: SARS-CoV1,1840 nM
ETLLLLGLMI,Kd,HLA-A*26:01; [11],≥ 54400 nM
FDFCEGTTVV,Kd,HLA-B*51:01; [10],2650 nM
FILTAILFF,Kd,HLA-B*15:01 [4]; [12],181 nM
FMAILQHHQ,IC50,HLA-A*02:01 [2]; [13],1080 nM
FTPEARNSTF,Kd,HLA-A*26:01; [14],518 nM
same,Kd,HLA-A*24:02; [14],4150 nM
GGFSTLDKI,IC50,HLA-A*02:01 [2]; source organism: Variola virus,≥ 124000 nM
GMMGGLWKY,Kd,HLA-B*46:01,≥ 20000 nM
GPRTRGYAI,Kd,HLA-B*07:02; [15],9 nM
GRSCTEETF,Kd,HLA-B*27:05; source organism: Mammarenavirus juninense,≥ 20000 nM
GTGPCAGDF,IC50,HLA-A*02:01 [2]; [13],≥ 512000 nM
IANELNYILW,Kd,HLA-B*53:01; [11],79.9 nM
ICDDVLSKY,Kd,HLA-A*01:01 [1]; [16],3180 nM
same,Kd,HLA-A*69:01; [16],2690 nM
ILNGGLGNA,Kd,HLA-A*69:01; [17],≥ 20000 nM
same,Kd,HLA-A*02:01 [5]; [17],317 nM
ILYDTGSSW,Kd,HLA-B*58:01; [18],92.8 nM
same,Kd,HLA-A*02:01 [5]; [18],10200 nM
same,Kd,HLA-B*15:01 [6]; [18],119 nM
IMILKLLTDF,Kd,HLA-B*15:01 [4]; source organism: Dengue virus 1 Singapore/S275/1990,12.4 nM
IPHDLMEFI,Kd,HLA-B*51:01; [19],20.4 nM
same,Kd,HLA-B*53:01; [19],6.39 nM
ISTIGIRPS,IC50,HLA-A*02:01 [2]; [7],≥ 116000 nM
IVFATAARY,Kd,HLA-B*15:01 [6]; [15],161 nM
IWLKLRDSY,Kd,HLA-A*30:02; [8],673 nM
KIMASENSS,IC50,HLA-A*02:01 [2]; [13],≥ 119000 nM
KQLESVMYL,Kd,HLA-A*69:01; [20],≥ 20000 nM
same,Kd,HLA-A*02:01 [5]; [20],4.8 nM
KQPATLRKY,Kd,HLA-A*30:02; [10],416 nM
KQTGSASSM,Kd,HLA-B*15:01 [4]; [10],10.8 nM
KSKKYEGPF,Kd,HLA-B*15:01 [4]; [12],1.86 nM
KTSQVPKLL,IC50,HLA-A*02:01 [2]; source organism: Variola virus,23500 nM
KVVQPENLEY,Kd,HLA-B*15:01 [4]; source organism: Dengue virus 2 16681-PDK53,30 nM
LAESVKMHM,Kd,HLA-B*15:01 [4]; [12],963 nM
LAKKTLAPF,Kd,HLA-B*15:01 [4]; [12],2.13 nM
LAMGCYSQV,Kd,HLA-B*51:01; [19],140 nM
LANTNFFVF,Kd,HLA-B*15:01 [4]; [12],17 nM
LHPASAWTLY,Kd,HLA-A*30:02; [8],53.7 nM
LLSSTRVPNY,Kd,HLA-A*30:02; [19],2170 nM
same,Kd,HLA-A*01:01 [3]; [19],2260 nM
LPETLETLL,Kd,HLA-B*53:01; [10],918 nM
LPVWLAHKV,Kd,HLA-B*51:01; [11],126 nM
same,Kd,HLA-B*53:01; [11],831 nM
LQKGGVIVY,Kd,HLA-B*15:01 [6]; [18],478 nM
LSIPHDLMEF,Kd,HLA-A*01:01 [3]; [19],≥ 36200 nM
same,Kd,HLA-B*15:01 [4]; [19],5.99 nM
LTPKAQREI,IC50,HLA-A*02:01 [2]; source organism: Variola virus,≥ 71400 nM
LVCKDHLAS,IC50,HLA-A*02:01 [2]; [7],≥ 185000 nM
MISRMLINRF,Kd,HLA-A*26:01; [10],8330 nM
MLIEVILTA,Kd,HLA-B*15:01 [4]; [12],207 nM
MLSEGRMNS,IC50,HLA-A*02:01 [2]; source organism: Vaccinia virus,6520 nM
MMIDDFGTA,Kd,HLA-B*15:01 [4]; [12],7.6 nM
MMLAQAYYG,Kd,HLA-A*69:01; [21],3190 nM
same,Kd,HLA-A*02:01 [5]; [21],273 nM
same,Kd,HLA-B*15:01 [6]; [21],5780 nM
MPLVMAWRT,Kd,HLA-B*51:01; [19],693 nM
same,Kd,HLA-B*53:01; [19],88.4 nM
MSFRDLGRVM,Kd,HLA-B*51:01; [10],≥ 38300 nM
NAVTTNNLL,Kd,HLA-A*02:03; [12],≥ 24900 nM
same,Kd,HLA-A*02:06; [12],202 nM
same,Kd,HLA-A*02:02; [12],1850 nM
NGLITSTVT,IC50,HLA-A*02:01 [2]; [7],≥ 118000 nM
NIEIMDKEQL,Kd,HLA-A*02:03; [12],15500 nM
same,Kd,HLA-A*02:06; [12],5650 nM
same,Kd,HLA-A*02:02; [12],3470 nM
NLWNTFTRL,Kd,HLA-A*02:03; [22],194 nM
same,Kd,HLA-A*02:06; [22],166 nM
same,Kd,HLA-A*02:02; [22],24 nM
NLYISDYKM,Kd,HLA-A*02:03; [12],≥ 25300 nM
same,Kd,HLA-A*02:06; [12],11000 nM
same,Kd,HLA-A*02:02; [12],2790 nM
NVLAWLYAA,Kd,HLA-A*02:03; [22],15.3 nM
same,Kd,HLA-A*02:06; [22],1.58 nM
same,Kd,HLA-A*02:02; [22],7.31 nM
PLTYLEYPI,Kd,HLA-A*02:01 [5]; source organism: Homo sapiens,2860 nM
PPTAGVLARW,Kd,HLA-B*53:01; [11],4930 nM
PTLFGRGVI,Kd,HLA-A*02:03; [12],6730 nM
same,Kd,HLA-A*02:06; [12],≥ 64800 nM
same,Kd,HLA-A*02:02; [12],≥ 30300 nM
QGDNDNWWT,IC50,HLA-A*02:01 [2]; [13],≥ 283000 nM
QLSGLGINAV,IC50,HLA-A*02:01 [2]; source organism: Hepatitis C virus subtype 1b,123 nM
